Results: patent publication US20240158448A1 (published 2024)
No end group written: not given here. FAM = 5(6)-carboxyfluorescein

Key:
[1] = target: T1, human SIRPα expressed on cells (PMA-differentiated THP-1 macrophages; A549 cells) (human, UniProt P78324 31-504); test: fluorescence microscopy saturation binding; live THP-1 macrophages
[2] = target: T2, mouse SIRPα expressed on J774A.1 macrophages (mouse, UniProt P97797 32-513); test: fluorescence microscopy saturation binding; live J774A.1 macrophages
T2 chain: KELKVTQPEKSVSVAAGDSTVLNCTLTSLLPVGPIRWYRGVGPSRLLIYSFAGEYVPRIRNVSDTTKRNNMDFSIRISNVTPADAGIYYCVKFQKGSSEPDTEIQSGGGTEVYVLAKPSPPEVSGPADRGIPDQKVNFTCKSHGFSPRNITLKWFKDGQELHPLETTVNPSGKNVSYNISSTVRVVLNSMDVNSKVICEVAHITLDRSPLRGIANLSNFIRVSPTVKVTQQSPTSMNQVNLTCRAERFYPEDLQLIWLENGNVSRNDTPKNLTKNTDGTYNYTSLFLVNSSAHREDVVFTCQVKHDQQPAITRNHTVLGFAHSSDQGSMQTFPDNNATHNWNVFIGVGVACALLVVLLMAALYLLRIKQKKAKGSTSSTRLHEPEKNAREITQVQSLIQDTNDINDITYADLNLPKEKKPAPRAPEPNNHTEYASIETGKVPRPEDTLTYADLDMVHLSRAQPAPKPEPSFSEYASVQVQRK

[3] = target: T1, human SIRPα expressed on cells …; test: fluorescence microscopy saturation binding; live THP-1 macrophages, corrected by subtracting nS-X-FAM
[4] = target: T1, human SIRPα expressed on cells …; test: fluorescence microscopy saturation binding; fixed THP-1 macrophages

Question: Which Kd [1] does the source give for K(FAM)VTELTREG-NH2 [FAM-labeled nS-wt] here?
Answer: The Kd was 148 µM.

Question: And the Kd [2]?
Answer: Its Kd is 138 µM.

Question: What about the Kd [3] of the same binder?
Answer: The Kd was 52 µM.

Question: For K(FAM)VTELVREG-NH2 [FAM-labeled nS-V], which Kd [1] is on record?
Answer: The Kd was 161 µM.

Question: What about the Kd [4] of the same binder?
Answer: Its Kd is 32 µM.

Question: And the Kd [2]?
Answer: The Kd was 203 µM.

Question: And the Kd [3]?
Answer: The Kd was 123 µM.

Question: What does the source list for K(FAM)VTELFREG-NH2 [FAM-labeled nS-F]?
Answer: Kd [1]: 195 µM; Kd [3]: 93 µM

Question: How did the Kd [1] turn out when K(FAM)LETVEGTR-NH2 [FAM-labeled nS-X] was run?
Answer: The Kd was 916 µM.
